What was measured:
[1] = biological target: Pseudomonas aeruginosa Psl exopolysaccharide; conditions: anti-Psl mAb binding; cited from earlier work
[2] = system: attachment of Pseudomonas aeruginosa to epithelial cells; conditions: mAb concentration giving max. inhibition of cell attachment; cited from earlier work
P. aeruginosa = conditions: cited from earlier work
Psl = assay: mAb reactivity with Psl after mild alkaline treatment during carbohydrate purification; format: binding, P. aeruginosa; conditions: data not shown
From the text: This observation raises the possibility that the class I mAb binds to a conformational epitope or a yet to be elucidated sub-stoichiometric Psl isoform. The potential for the latter is supported by the observation that mild alkaline, but not exhaustive protease treatment, during carbohydrate purification abolishes Cam-003 reactivity while maintaining WapR-001 and WapR-016 reactivity (data not shown).

Molecule | Kd [1] | Cell attachment max. inhibition [2] | OPK EC50 (P. aeruginosa) | mAb reactivity after mild alkaline treatment of Psl (Psl)
WapR-003: anti-Psl monoclonal antibody, class II epitope; VH SEQ ID NO: 9, VL SEQ ID NO: 10 (antibody, V domains shown, WapR-003 VH; WapR-003 VL) VH: QMQLVQSGGGLVQPGGSLRLSCSASGFTFSSYPMHWVRQAPGKGLDYVSDISPNGGATNYADSVKGRFTISRDNSKNTVYLQMSSLRAEDTAVYYCVMGLVPYGFDNWGQGTMVTVSS VL: QTVVTQPASVSASPGQSITISCAGTSGDVGNYNFVSWYQQHPGKAPKLLIYEGSQRPSGVSNRFSGSRSGNTASLTISGLQAEDEADYYCSSYARSYTYVFGTGTKLTVL | 12.2 nM | 30.0 µg/mL | 0.278 µg/mL | –
WapR-002: anti-Psl monoclonal antibody, class II epitope; VH SEQ ID NO: 7, VL SEQ ID NO: 8 (antibody, V domains shown, WapR-002 VH; WapR-002 VL) VH: QVQLVQSGGGLVQPGGSLRLSCSASGFTFSSYPMHWVRQAPGKGLDYVSDISPNGGSTNYADSVKGRFTISRDNSKNTLFLQMSSLRAEDTAVYYCVMGLVPYGFDIWGQGTLVTVSS VL: QTVVTQPASVSGSPGQSITISCTGTSSDVGGYNYVSWYQQHPGKAPKLMIYEVSNRPSGVSNHFSGSKSGNTASLTISGLQAEDEADYYCSSYTTSSTYVFGTGTKVTVL | 12.6 nM | 30.0 µg/mL | 0.396 µg/mL | –
WapR-001: anti-Psl monoclonal antibody, class II epitope; VH SEQ ID NO: 5, VL SEQ ID NO: 6 (antibody, V domains shown, WapR-001 VH; WapR-001 VL) VH: EVQLLESGGGLVQPGGSLRLSCSASGFTFSRYPMHWVRQAPGKGLEYVSDIGTNGGSTNYADSVKGRFTISRDNSKNTVYLQMSSLRAEDTAVYHCVAGIAAAYGFDVWGQGTMVTVSS VL: QAGLTQPASVSGSPGQSITISCTGTSSDIATYNYVSWYQQHPGKAPKLMIYEGTKRPSGVSNRFSGSKSGNTASLTISGLQAEDEADYYCSSYARSYTYVFGTGTELTVL | 0.84 nM | 30.0 µg/mL | 0.310 µg/mL | maintaining
